Test results from the Immune Epitope Database (IEDB).
Blank lines part the entries; values can stand above or below the sequence they belong to.

What was measured:
HLA-B*07:02 [1] = assay: IEDB peptide-MHC binding, purified MHC/competitive/radioactivity; filed as Kd, often an IC50 or EC50 that approximates it; ≥ and ≤ were set here for values at or beyond the usual limits of such assays
HLA-B*35:01 = assay: as above
HLA-B*51:01 = assay: as above
HLA-B*53:01 = assay: as above
HLA-B*54:01 = assay: as above
HLA-A*02:01 [2] = assay: as above
HLA-A*02:02 = assay: as above
HLA-A*02:06 = assay: as above
HLA-A*68:02 = assay: as above
HLA-A*03:01 [3] = assay: IEDB peptide-MHC binding, purified MHC/competitive/fluorescence; filed as Kd, often an IC50 or EC50 that approximates it; ≥ and ≤ were set here for values at or beyond the usual limits of such assays
HLA-B*15:01 [4] = assay: as above; conditions: source organism: Escherichia coli F11
HLA-A*11:01 = assay: IEDB peptide-MHC binding, purified MHC/direct/fluorescence; filed as Kd, often an IC50 or EC50 that approximates it; ≥ and ≤ were set here for values at or beyond the usual limits of such assays
HLA-B*07:02 [5] = assay: as above
HLA-B*08:01 = assay: as above
HLA-B*27:05 = assay: as above
HLA-A*01:01 = assay: as above
HLA-A*02:01 [6] = assay: as above
HLA-A*03:01 [7] = assay: as above
HLA-A*26:01 = assay: as above
HLA-A*69:01 = assay: as above
HLA-B*15:01 [8] = assay: as above
HLA-B*40:01 = assay: as above; conditions: source organism: Giardia lamblia ATCC 50803
HLA-B*58:01 = assay: as above
HLA-B*46:01 = assay: as above; conditions: source organism: Mammarenavirus lassaense
HLA-A*02:03 = assay: IEDB peptide-MHC binding, purified MHC/competitive/radioactivity; filed as Kd, often an IC50 or EC50 that approximates it; ≥ and ≤ were set here for values at or beyond the usual limits of such assays; conditions: source organism: Trypanosoma cruzi
HLA-A*31:01 = assay: IEDB peptide-MHC binding, purified MHC/direct/fluorescence; filed as Kd, often an IC50 or EC50 that approximates it; ≥ and ≤ were set here for values at or beyond the usual limits of such assays; conditions: source organism: Pseudomonas aeruginosa UCBPP-PA14
[9] = source organism: Vaccinia virus WR
[10] = source organism: SARS coronavirus Tor2
[11] = source organism: Triticum aestivum
[12] = source organism: Giardia lamblia ATCC 50803
[13] = source organism: Trypanosoma cruzi
[14] = source organism: Pseudomonas aeruginosa UCBPP-PA14

Sequence: EPLSPDTCL
- Kd (HLA-B*07:02 [1]; [9]): 10.5 µM
- Kd (HLA-B*35:01; [9]): 0.522 µM
- Kd (HLA-B*51:01; [9]): 0.211 µM
- Kd (HLA-B*53:01; [9]): 0.189 µM
- Kd (HLA-B*54:01; [9]): ≥ 78.1 µM

Sequence: TPIFSDLLKY
- Kd (HLA-B*07:02 [1]; [9]): 0.00346 µM
- Kd (HLA-B*35:01; [9]): 12.7 µM
- Kd (HLA-B*51:01; [9]): ≥ 44.8 µM
- Kd (HLA-B*53:01; [9]): 3.61 µM
- Kd (HLA-B*54:01; [9]): 12.8 µM

- Kd (HLA-A*02:01 [2]; source organism: Homo sapiens): 0.558 µM
- Kd (HLA-A*02:02; source organism: Homo sapiens): 0.117 µM
- Kd (HLA-A*02:06; source organism: Homo sapiens): 0.0405 µM
- Kd (HLA-A*68:02; source organism: Homo sapiens): 0.00206 µM
Sequence: ELQAALARV

Sequence: KFFPSSSYRR
- Kd (HLA-A*03:01 [3]; source organism: Influenza A virus (A/Fort Monmouth/1/1947-mouse adapted(H1N1))): 4.32 µM

- Kd (HLA-A*03:01 [3]; source organism: Escherichia coli F11): ≥ 20 µM
- Kd (HLA-B*15:01 [4]): 3 µM
Sequence: GIAACLMTY

Sequence: WPWYVWLGFI
- Kd (HLA-B*07:02 [1]; [10]): ≥ 51.8 µM
- Kd (HLA-B*35:01; [10]): ≥ 69.9 µM
- Kd (HLA-B*51:01; [10]): 11.1 µM
- Kd (HLA-B*53:01; [10]): 4.57 µM
- Kd (HLA-B*54:01; [10]): 15.5 µM

- Kd (HLA-B*07:02 [1]; [11]): 14.1 µM
- Kd (HLA-B*35:01; [11]): 0.244 µM
- Kd (HLA-B*51:01; [11]): 0.0204 µM
- Kd (HLA-B*53:01; [11]): 1.04 µM
- Kd (HLA-B*54:01; [11]): ≥ 87.7 µM
Sequence: FPQPQLPY

Sequence: SPLTLLIKTL
- Kd (HLA-B*07:02 [1]; [9]): 1.12 µM
- Kd (HLA-B*35:01; [9]): ≥ 69.9 µM
- Kd (HLA-B*51:01; [9]): ≥ 57.3 µM
- Kd (HLA-B*53:01; [9]): ≥ 30 µM
- Kd (HLA-B*54:01; [9]): ≥ 69.9 µM

Sequence: NPKTPKYKF
- Kd (HLA-A*11:01; source organism: SARS-CoV1): 3.96 µM
- Kd (HLA-B*07:02 [5]; source organism: SARS-CoV1): ≥ 28.6 µM
- Kd (HLA-B*08:01; source organism: SARS-CoV1): 1.15 µM

Sequence: YRYLRHGKL
- Kd (HLA-B*08:01; source organism: SARS-CoV1): 0.104 µM
- Kd (HLA-B*27:05; source organism: SARS-CoV1): 0.0786 µM

Sequence: YTDDYPMYK
- Kd (HLA-A*01:01; [12]): 0.0189 µM
- Kd (HLA-A*02:01 [6]; [12]): ≥ 20 µM
- Kd (HLA-A*03:01 [7]; [12]): 0.359 µM
- Kd (HLA-A*11:01; [12]): 0.04 µM
- Kd (HLA-A*26:01; [12]): ≥ 20 µM
- Kd (HLA-A*69:01; [12]): 0.127 µM
- Kd (HLA-B*07:02 [5]; [12]): ≥ 20 µM
- Kd (HLA-B*08:01; [12]): ≥ 20 µM
- Kd (HLA-B*15:01 [8]; [12]): ≥ 20 µM
- Kd (HLA-B*27:05; [12]): ≥ 20 µM
- Kd (HLA-B*40:01): ≥ 20 µM
- Kd (HLA-B*58:01; [12]): ≥ 20 µM

Sequence: LPLTSLVITY
- Kd (HLA-B*07:02 [1]; [9]): 7.29 µM
- Kd (HLA-B*35:01; [9]): 0.00835 µM
- Kd (HLA-B*51:01; [9]): 16.5 µM
- Kd (HLA-B*53:01; [9]): 0.0127 µM
- Kd (HLA-B*54:01; [9]): 2.7 µM

Sequence: LYQPSSGCY
- Kd (HLA-B*15:01 [8]; source organism: Mammarenavirus lassaense): 1.07 µM
- Kd (HLA-B*46:01): ≥ 20 µM

Sequence: ELLRPTTVV
- Kd (HLA-A*02:01 [2]; [13]): 6.71 µM
- Kd (HLA-A*02:02; [13]): 6.01 µM
- Kd (HLA-A*02:03): 1.2 µM
- Kd (HLA-A*02:06; [13]): 1.88 µM
- Kd (HLA-A*68:02; [13]): 0.0918 µM

Sequence: RAAGLQDCT
- Kd (HLA-A*02:01 [2]; source organism: Hepatitis C virus (isolate 1)): ≥ 50 µM

Sequence: MVYKLWFKY
- Kd (HLA-A*03:01 [3]; source organism: Entamoeba dispar SAW760): 14.1 µM

- Kd (HLA-A*01:01; [14]): ≥ 20 µM
- Kd (HLA-A*02:01 [6]; [14]): ≥ 20 µM
- Kd (HLA-A*03:01 [7]; [14]): ≥ 20 µM
- Kd (HLA-A*11:01; [14]): ≥ 20 µM
- Kd (HLA-A*26:01; [14]): ≥ 20 µM
- Kd (HLA-A*31:01): ≥ 20 µM
- Kd (HLA-A*69:01; [14]): ≥ 20 µM
- Kd (HLA-B*07:02 [5]; [14]): ≥ 20 µM
- Kd (HLA-B*08:01; [14]): ≥ 20 µM
- Kd (HLA-B*15:01 [8]; [14]): ≥ 20 µM
- Kd (HLA-B*27:05; [14]): ≥ 20 µM
- Kd (HLA-B*58:01; [14]): ≥ 20 µM
Sequence: ANPGRVKDW
